Source: publication PMC8674365, “PP2A phosphatase inhibition is anti-fibrotic through Ser77 phosphorylation-mediated ARNT/ARNT homodimer formation” (Scientific Reports, 2021)

B1: Endogenous ARNT of mouse kidney (UUO-challenged C57BL/6 mice) (natural protein)
chain: not shown
notes: Aryl hydrocarbon receptor nuclear translocator (ARNT), endogenous in kidney tissue of C57BL/6 mice; source: endogenous, total kidney lysate of mice, immunoprecipitated with ARNT antibody
B2: Endogenous ARNT of mouse tubular epithelial cells (MCT) (natural protein)
chain: not shown
notes: Aryl hydrocarbon receptor nuclear translocator (ARNT), endogenous in the murine proximal tubular epithelial cell line MCT; source: endogenous, MCT cell extract, immunoprecipitated with ARNT antibody

Assays:
[1] = molecular target: the molecule itself; test: native MS; liquid native MALDI mass spectrometry of endogenous ARNT pulled down from total kidney lysates of LB100-treated UUO mice; eluted in 0.3% TFA, mixed with ammonium acetate buffer (100 mM, pH 9), glycerol
[2] = molecular target: the molecule itself; test: immunoprecipitation and MALDI-TOF mass spectrometry; endogenous ARNT pulled down from extracts of LB100-treated MCT cells with ARNT antibody, eluted with 0.3% TFA, sinapinic acid matrix, linear positive mode

Row | Protein | stoichiometry N [1] | stoichiometry N [2]
1 | B1 | 2 | –
2 | B2 | – | 2
